Key:
[1] = target: T1, recombinant human PD-L1 expressed with a C-terminal myc-myc-hexahistidine tag (hPD-L1-MMH) (human); test: SPR, captured mAb, 25 C
T1 construct: Monomeric PD-L1 reagent; also called hPD-L1-MMH Monomer
Description: (§1) Binding association and dissociation rate constants (kₐ and kd, respectively), equilibrium dissociation constants and dissociation half-lives (KD and t_{1/2}, respectively) of antigen binding to purified anti-PD-L1 monoclonal antibodies were determined using a real-time surface plasmon resonance biosensor assay on a Biacore 4000 instrument. The Biacore sensor surface was either derivatized with polyclonal rabbit anti-mouse antibody (GE, #BR-1008-38) or with monoclonal mouse anti-human Fc antibody (GE, #BR-1008-39) to capture approximately 200-300 RUs of anti-PD-L1 monoclonal antibodies, expressed with either a mouse Fc or with human Fc, respectively. […] Different concentrations of PD-L1 reagents were injected over the anti-PD-L1 monoclonal antibody captured surface at a flow rate of 30 μL/min. The binding of the PD-L1 reagents to the captured monoclonal antibodies was monitored for 3 to 4 minutes while the dissociation of antibody bound PD-L1 reagents was monitored for 10 minutes in HBST running buffer (0.01 M HEPES pH 7.4, 0.15 M NaCl, 3 mM EDTA, 0.05% v/v Surfactant tween-20). Experiments were performed at either 25° C. or 37° C. Kinetic association (kₐ) and dissociation (kd) rate constants were determined by processing and fitting the data to a 1:1 binding model using Scrubber 2.0c curve fitting software. Binding dissociation equilibrium constants (KD) and dissociative half-lives (t_{1/2}) were then calculated from the kinetic rate constants as: KD (M)=kd/kₐ and t_{1/2} (min)=[In2/(60*kd)].

[2] = target: T2, Human PD-L1 Dimer (human, UniProt Q9NZQ7 19-239); test: SPR (Biacore), mAb captured, 37C
T2 construct: also called hPD-L1 dimer; hPD-L1-hFc
Description: as §1

[3] = target: T3, recombinant human PD-L1 (amino acids 19-239 of NP_054862.1) with a C-terminal myc-myc-hexahistidine tag (human); test: SPR (Biacore), mAb captured, 37C
T3 construct: also called hPD-L1-MMH; hPD-L1-MMH Monomer
Description: as §1

[4] = target: T4, recombinant cynomolgus monkey PD-L1 with a C-terminal myc-myc-hexahistidine tag (cynomolgus monkey (Macaca fascicularis)); test: SPR (Biacore), mAb captured, 37C
T4 construct: also called MfPD-L1-MMH; MfPD-L1-MMH Monomer
Description: as §1

[5] = target: T2, Human PD-L1 Dimer; test: SPR (Biacore), mAb captured, 25C
Description: as §1

[6] = target: T4, recombinant cynomolgus monkey PD-L1 …; test: SPR (Biacore), mAb captured, 25C
Description: as §1

T2 sequence (Q9NZQ7 19-239): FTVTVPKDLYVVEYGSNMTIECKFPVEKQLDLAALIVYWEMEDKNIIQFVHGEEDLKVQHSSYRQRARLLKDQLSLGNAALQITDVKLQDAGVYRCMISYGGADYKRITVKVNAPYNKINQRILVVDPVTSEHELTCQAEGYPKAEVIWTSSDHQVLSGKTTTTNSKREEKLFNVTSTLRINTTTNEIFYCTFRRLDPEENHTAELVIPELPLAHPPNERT
T3 sequence (chain, as listed by the source limits assumed): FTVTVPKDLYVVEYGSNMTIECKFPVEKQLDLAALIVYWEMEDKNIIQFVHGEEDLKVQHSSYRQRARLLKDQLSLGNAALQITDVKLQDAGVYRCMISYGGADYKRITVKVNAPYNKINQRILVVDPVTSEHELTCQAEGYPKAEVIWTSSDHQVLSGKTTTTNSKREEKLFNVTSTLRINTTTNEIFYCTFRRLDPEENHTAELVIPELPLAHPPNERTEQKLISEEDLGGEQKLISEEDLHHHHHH
T4 sequence (chain, as listed by the source limits assumed): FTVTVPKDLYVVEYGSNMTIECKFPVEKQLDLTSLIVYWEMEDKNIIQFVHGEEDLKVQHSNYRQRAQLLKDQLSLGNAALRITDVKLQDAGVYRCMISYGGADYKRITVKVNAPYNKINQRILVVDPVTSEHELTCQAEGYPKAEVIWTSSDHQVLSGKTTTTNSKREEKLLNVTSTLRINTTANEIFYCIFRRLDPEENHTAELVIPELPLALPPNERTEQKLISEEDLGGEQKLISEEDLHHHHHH

| Kd [1] [nM] | koff [1] [s⁻¹] | kon [1] [M⁻¹ s⁻¹] | t1/2 [1] [min] | Binder | other results |
| --- | --- | --- | --- | --- | --- |
| 69.6 | 0.01 | 144000 | 1.2 | H2aM8306N (antibody, mouse IgG2, V domains shown, also called H2M8306N) VH: EVQLVESGGGLVQPGGSLRLSCAASGFTFSRFWMSWVRQAPGKGLEWVANINQDGTEKYYVDSVKGRFTISRDNAKNSLYLQMNSLRAGDTAVYYCANTYYDFWSGHFDYWGQGTLVTVSS VL: not shown [H2aM8306N, listing 1 of 2 here] |  |
|  |  |  |  | H2aM8306N (antibody, mouse IgG2, V domains shown, also called H2M8306N) VH: EVQLVESGGGLVQPGGSLRLSCAASGFTFSRFWMSWVRQAPGKGLEWVANINQDGTEKYYVDSVKGRFTISRDNAKNSLYLQMNSLRAGDTAVYYCANTYYDFWSGHFDYWGQGTLVTVSS VL: not shown [H2aM8306N, listing 2 of 2 here] | Kd [2]: 0.417 nM; koff [2]: 0.000416 s⁻¹; kon [2]: 997000 M⁻¹ s⁻¹; t1/2 [2]: 28 min; Kd [3]: 172 nM; koff [3]: 0.031 s⁻¹; kon [3]: 180000 M⁻¹ s⁻¹; t1/2 [3]: 0.4 min; Kd [4]: 134 nM; koff [4]: 0.0368 s⁻¹; kon [4]: 274000 M⁻¹ s⁻¹; t1/2 [4]: 0.3 min; Kd [5]: 0.418 nM; koff [5]: 0.000309 s⁻¹; kon [5]: 739000 M⁻¹ s⁻¹; t1/2 [5]: 37 min; Kd [6]: 47.7 nM; koff [6]: 0.00788 s⁻¹; kon [6]: 165000 M⁻¹ s⁻¹; t1/2 [6]: 1.5 min |
| 9.51 | 0.000722 | 75900 | 16 | H2aM8312N (antibody, mouse IgG2, V domains shown, also called H2M8312N) VH: QVHLVQSGAEVKKPGASVKVSCKASGYTFTGYYIHWVRQAPGHGLEWMGWLNPNTGTTKYIQNFQGRVTMTRDTSSSTAYMELTRLRSDDTAVYYCARDEDWNYGSWFDTWGQGTLVTVSS VL: not shown |  |
| 0.321 | 0.000299 | 932000 | 39 | H1H9364P2 (antibody, human IgG1, V domains shown) VH: EVQLVESGGGLVQPGRSLRLSCAASGFTFDDYALHWVRQAPGKGLEWVSGISWTGGTIDYADSVKGRFTISRDNAKNSLYLQMSSLRTEDTAIYYCTRDIRGNWKYGGWFDPWGQGTLVTVSS VL: not shown |  |
| 3.5 | 0.00031 | 88600 | 37 | H2aM8310N (antibody, mouse IgG2, V domains shown, also called H2M8310N) VH: QVQLVQSGAEVKKPGASVQVSCKASGYSFTGYYIHWVRQAPGQGLEWMGWINPNSGTKKYAHKFQGRVTMTRDTSIDTAYMILSSLISDDTAVYYCARDEDWNFGSWFDSWGQGTLVTVSS VL: DIVMTQTPLSSPVTLGQPASISCRSSQTLVHGDGNTYLSWIQQRPGQPPRLLIYKVSNQFSGVPDRFSGSGAGTDFTLKISRVEAEDVGLYFCMQATHFPITFGQGTRLEIK |  |
| 12.7 | 0.00218 | 172000 | 5.3 | H1H9396P2 (antibody, human IgG1, V domains shown) VH: QVQLVQSGAEVEKPGASVKVSCKASGYIFTHYGISWVRQAPGQGLEWVGWISPYNGYTDYAQKLQGRVTLTTDTSTTTAYMELRNLRSDDTAMYYCSRGRGPYWSFDLWGRGTLVTVSS VL: not shown |  |
| 165 | 0.0149 | 90200 | 0.8 | H1H9345P2 (antibody, human IgG1, V domains shown) VH: EVQLVESGGGLVQPGGSLRLSCAASGFTISTNYMNWVRQAPGKGLEWVAVIYSSGSTYYIDSVKGRFTISRLTSKNTVYLQMSSLNSEDTAVYYCARGIRGFDIWGQGTMVTVSS VL: not shown |  |
| 0.238 | 0.000223 | 937000 | 52 | H2aM8323N (antibody, mouse IgG2, V domains shown, also called H2M8323N) VH: QVQLVQSGAEVKMPGSSVRVSCKASGGIFSSSTISWVRQAPGQGLEWMGEIIPVFGTVNYAQKFQDRVIFTADESTTTAYMELSSLKSGDTAVYFCARNWGLGSFYIWGQGTMVTVSS VL: EIVLTQSPGTLSLSPGERATLSCRASQSFNFNYLAWYQQKPGQAPRLLIYGASSRATGIPDRFSGSGSGTDFTLTINRLEPEDFGVFYCQQYESAPWTFGQGTKVEIK |  |
| 16.3 | 0.0104 | 642000 | 1.1 | H2aM8309N (antibody, mouse IgG2, V domains shown, also called H2M8309N) VH: not shown VL: DIQMTQSPSSLSASVGDRVTITCRTSQGIRNDLGWYQQKPGKAPKRLIYAASSLQSGVPSRFSGSGSGTEFTLTISSLQPEDFATYYCLQHNNYPYTFGQGTKLEIK |  |
| 75.8 | 0.134 | 1.77e+06 | 0.1 | H1H9329P (antibody, human IgG1, V domains shown) VH: EVQLVESGGGLVQSGGSLRLSCAASGFTFSSYWMSWVRQAPGKGLEWVANIKQDGSEKYYVDSVKGRFTISRDNAKNSLYLQMNSLRADDTAVYYCARDDIVVVPAPMGYYYYYFGMDVWGQGTTVTVSS VL: DIQMTQSPSSLSASVGDRVTITCRASQGIRNDLGWYQQKPGKAPKRLIYAASSLQSGVPSRFSGSGSGTEFTLTISSLQPEDFATYYCLQHNSYPYTFGQGTKLEIK |  |
| 0.492 | 0.00039 | 792000 | 30 | H1H9336P (antibody, human IgG1, V domains shown) VH: EVQLVESGGGLVQPGRSLRLSCAASGFTFDDFAMHWVRQAPGKGLEWVSGISWTGGNMDYANSVKGRFTISREDAKNSLYLQMNSLRAADTALYYCVKDIRGIVATGGAFDIWGRGTMVTVSS VL: DIQMTQSPSSLSASVGDRVTISCRASQTISTYLNWFQQKPGKAPKLLIYVVSSLQSGVPSRFSGSGSGTDFTLTISSLQPEDFATYYCQQSYSTPFTFGPGTKVDIK |  |
| 60.6 | 0.00479 | 79000 | 2.4 | H1H9382P2 (antibody, human IgG1, V domains shown) VH: EVQLVESGGGLVQPGGSLRLSCAASGFTVGTNFMNWVRQAPGKGLEWVSAIYSGGTANYADSVKGRFTISRDTSRNTLYLQMNSLRTEDTAVYYCARGGGMDVWGQGTTVTVSS VL: not shown |  |
| 0.0558 | 5.17e-05 | 925000 | 224 | H2aM8314N (antibody, mouse IgG2, V domains shown, also called H2M8314N) VH: EVQLVESGGGVVRPGGSLRLSCAASGFTFDDYGMTWVRQAPGRGLEWVSGIHWHGKRTGYADSVKGRFTISRDNAKKSLYLQMNSLKGEDTALYHCVRGGMSTGDWFDPWGQGTLVIVSS VL: DIQMTQSPSSLSASLGDRVTITCRASQSINSYLNWYQQKPGKAPKLLIYVASSLQSGVPSRFSGSGSGTEFTLTISNLQPEDFATYYCQQSYSTPPITFGQGTRLEIK |  |
| 421 | 0.0395 | 94000 | 0.3 | H2aM8317N (antibody, mouse IgG2, V domains shown, also called H2M8317N) VH: EVQLVESGGGLVQPGGSLRLSCAASGFTVGSNYMNWVRQAPGKGLEWVSVIYSGGSTYYADSVKGRFTISRLTSKNTLYLQMSSLRPEDTAVYYCARGIRGLDVWGQGTTVTVSS VL: DIQMTQSPSSLSASVGDRVTITCRASQTINIYLNWYQQKPGRAPRLLIYAASSLQSGVPSRFSGSGSGTDFTLTISSLQPEDFATYYCHQSYSTPPITFGQGTRLEIK |  |
| 34.9 | 0.00359 | 103000 | 3.2 | H2aM8321N (antibody, mouse IgG2, V domains shown, also called H2M8321N) VH: EERLVESGGDLVQPGGSLRLSCAASGITVGTNYMNWVRQAPGKGLEWVSVISSGGNTHYADSVKGRFIMSRQTSKNTLYLQMNSLETEDTAVYYCARGIRGLDVWGQGTMVTVSS VL: DIQMTQSPSSLSASVGDRVTITCRASQSMSSYLNWYQQKPGRAPKLLIFAASSLQSGVPSRFSGSGSGTDFTLTISSLQPEDFATYYCQQSYSTPPITFGQGTRLEIK |  |
| 22.1 | 0.0582 | 2.64e+06 | 0.2 | H1H9387P2 (antibody, human IgG1, V domains shown) VH: QVQLVQSGAEVKKPGSSVKVSCKASGGTFNTYVLSWVRQAPGQGLEWMGEIIPILGAANYAQNFQGRVTFTTDESTNTAYMDLSSLRSEDTAVYYCARDRTSGGFDPWGQGTLVTVSS VL: not shown |  |
| 8.04 | 0.000383 | 47600 | 30 | H1H9354P2 (antibody, human IgG1, V domains shown) VH: EVQLVESGGGLVQPGGSLRLSCEASGFTVGVNHMNWVRQAPGKGLEWVSVIFSSGRTFYGDYVKGRLTIFRQTSQNTVYLQMNSLRSEDTAIYYCARGIGGLDIWGRGTMVTVSS VL: not shown |  |

Reference: patent US20210380702A1 (Regeneron, published 2021)
